Data reported in PMC3250429, “Recombinant Probiotic Expressing Listeria Adhesion Protein Attenuates Listeria monocytogenes Virulence In Vitro” (PLoS ONE, 2012).

Target: human Hsp60 (human, UniProt P10809 27-573, biotin (biotinylated Hsp60, site not stated))
Test: cell-based or functional assay

human Hsp60, sequence (P10809 27-573): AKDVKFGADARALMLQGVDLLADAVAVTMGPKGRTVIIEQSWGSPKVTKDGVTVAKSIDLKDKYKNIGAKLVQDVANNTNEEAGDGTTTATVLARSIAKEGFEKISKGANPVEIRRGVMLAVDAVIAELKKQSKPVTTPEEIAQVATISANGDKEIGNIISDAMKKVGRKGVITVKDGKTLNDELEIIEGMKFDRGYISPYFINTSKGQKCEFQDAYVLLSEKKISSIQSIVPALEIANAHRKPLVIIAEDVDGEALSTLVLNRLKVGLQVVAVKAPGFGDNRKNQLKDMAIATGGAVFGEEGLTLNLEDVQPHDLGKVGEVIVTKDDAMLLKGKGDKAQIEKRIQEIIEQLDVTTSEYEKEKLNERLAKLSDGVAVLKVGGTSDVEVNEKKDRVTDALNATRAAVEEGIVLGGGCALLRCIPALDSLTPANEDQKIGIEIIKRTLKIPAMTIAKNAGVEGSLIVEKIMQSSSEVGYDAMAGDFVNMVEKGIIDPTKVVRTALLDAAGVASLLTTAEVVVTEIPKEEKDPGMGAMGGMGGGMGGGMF

B1: Listeria adhesion protein (LAP) of L. monocytogenes expressed on recombinant Lactobacillus paracasei (Lbp^LAP) (natural protein)
chain: MAIKENAAQEVLEVQKVIDRLADNGQKALKAFESYNQEQVDNIVHAMALAGLDQHMPLAKLAVEETGRGLYEDKCIKNIFATEYIWNNIKNNKTVGVINEDLQTGVIEIAEPVGVVAGVTPVTNPTSTTLFKAIIAIKTRNPIIFAFHPSAQRCSSAAAKVVYDAAIAAGAPEHCIQWVEKPSLEATKQLMNHDKVALVLATGGAGMVKSAYSTGKPALGVGPGNVPAYIDKTAKIKRSVNDIILSKSFDQGMICASEQAVIVDKEVAKEVKAEMEANNCYFVKGAEFKKLESYVINPEKGTLNPDVVGKSPAWIANQAGFKVPEDTKILVAEIKGVGDKYPLSHEKLSPVLAFIEAANQAEAFDRCEEMLVYGGLGHSAVIHSTDKEVQKAFGIRMKACRIIVNAPSAQGGIGDIYNGFIPSLTLGCGSYGKNSVSQNVSATNLLNVKRIADRRNNMQWFKLPPKIFFEKYSTQYLQKMEGVERVFIVTDPGMVQFKYVDVVIEHLKKRGNDVSYQVFADVEPDPSDVTVYKGAELMKDFKPDTIIALGGGSAMDAAKGMWLFYEHPEASFFGLKQKFLDIRKRTFKYPKLGGKAKFVAIPTTSGTGSEVTPFAVITDKENNIKYPLADYELTPDVAIVDAQYVTTVPAHITADTGMDVLTHAIESYVSVMASDYTRGLSIRAIELVFENLRESVLTGDPDAREKMHNASALAGMAFANAFLGINHSLAHKIGPEFHIPHGRANAILMPHVIRYNALKPKKHALFPRYESFRADEDYARISRIIGFPAATTEEGVKSLVDEIIKLGKDVGIDMSLKGQNVAKKDLDAVVDTLADRAFMDQCTTANPKQPLVSELKEIYLEAYKGV
transepithelial translocation of Lbp^LAP cells through Caco-2 monolayers (transwell, 2 h), against Lbp^WT: 5.1 fold
